Results from PMC4604765, “Eye drop delivery of pigment epithelium-derived factor-34 promotes retinal ganglion cell neuroprotection and axon regeneration” (Molecular and Cellular Neurosciences, 2015).
Where two headings read alike, the source gives them in different places.

Legend:
[1] = rat, in vivo; cited from earlier work
Description: Drug administration to the retina and vitreous body is challenging. Drugs applied to the surface of the eye rarely penetrate the ocular surface or enter into the vitreous body and the retina ([Gaudana et al., 2010]). Biological barriers such as the cornea, conjunctiva and the tear film limit penetration and bioavailability of topical drug preparations to the posterior segment of the eye and therefore direct injection of drugs to the vitreous is commonly used to target drugs to the retina ([Ayalasomayajula and Kompella, 2005; Carneiro et al., 2009; Eldaly and Styles, 2009; Yasukawa et al., 2001 ...

[2] = system: retinal ganglion cells (RGCs); details: intravitreal delivery at 0, 7 and 14 days after ONC, equimolar concentrations, 21 days after ONC; ref Vigneswara et al., 2013; cited from earlier work
Description: Here we wished to confirm that, in vivo, PEDF-34 was more neuroprotective than full length PEDF. After intravitreal injection of vehicle + 0 nM PEDF-34, 295 ± 15 FG^+ RGC/mm^2 survived 21 days after ONC + PBS (0 nM PEDF-34) (Fig. 2A and B). Increasing the dose of ...

RGC = details: intravitreal injections, ref Cheng et al., 2002, Kermer et al., 1998, Kurokawa et al., 1999, Monnier et al., 2011, Parrilla-Reverter et al., 2009, cited from earlier work
Description: Other commonly used retinal neuron/RGC neuroprotective factors include BDNF, glial-derived neurotrophic factor (GDNF), neurotrophin (NT)-3, NT-4/5, as well as caspase inhibitors ([Cheng et al., 2002; Kermer et al., 1998; Kurokawa et al., 1999; Monnier et al., 2011; Parrilla-Reverter et al., 2009]). Although intravitreal injections of BDNF protect 100% of RGC for 7 days, efficiency declines to 60% by 21 days. Most neuroprotective strategies tested support the survival of a maximum of 60% of RGC at 2 weeks after injury ([Cheng et al., 2002; Kermer et al., 1998; Kurokawa et al., 1999; Monnier et ...

[3] = system: βIII-tubulin+ retinal neurons; details: CNTF 440.5 pM, 4 days in culture
Description: For all in vitro experiments, adult 6–8-week-old female Sprague–Dawley rats weighing 170–220 g were used. Culture experiments included retinal cells treated with: (1), Neurobasal-A (NBA) alone (Control); and equimolar concentrations of (2), 2.16; (3) 5.4; (4), 10.8 and (5), 21.6 pM PEDF-34/-44; and (6), ciliary neurotrophic factor (CNTF: Peprotech, London, UK), as a positive control at an optimal neuroprotective/axogenic concentration of 440.5 pM, established by us previously ([Ahmed et al., 2009; Douglas et al., 2009]). […] All experiments were performed in triplicate and repeated on three independent occasions.
Mixed adult rat retinal cultures containing enriched populations of retinal neurons, including RGCs, were prepared from 6–8-week-old adult female Sprague–Dawley rats, as described previously ([Ahmed et al., 2006b, 2009, 2010; Douglas et al., 2009; Vigneswara et al., 2013]). Briefly, retinal cells were dissociated using a Papain dissociation kit according to the manufacturer's instructions (Worthington Biochemicals, Lakewood, NJ, USA). […]
The mean number of βIII-tubulin^+ neurons surviving, with neurites and the mean neurite length were quantified as described by us previously ([Vigneswara et al., 2013, 2014]). Briefly, chamber slides were anonymised by a second investigator and βIII-tubulin^+ neuronal soma and neurites quantified in 9 quadrants/well using Axiovision software (Version 4.8; Zeiss) and ImagePro (Version 6.3; Media Cybernetics, Bethesda, MD, USA). Of the 125,000 cells/well plated, the total numbers of neurons in each experiment were determined by βIII-tubulin^+ immunocytochemistry after allowing 30 min for cells to adhere to glass culture slides. […] Neurite outgrowth from at least 180 neurons/condition from the 9 wells was measured, except in control (NBA) cultures, in which a total of 108 neurons were measured.

RGC axons = details: administration of CNTF after ONC; ref Vigneswara et al., 2013; cited from earlier work

## ^125I-labelled nerve growth factor: 125I-labelled nerve growth factor (26 kDa)
[1]
  time of peak accumulation in the retina and optic nerve: 6 h

B1: full length PEDF: 50 kDa neurotrophic factor, member of the serpin superfamily (protein, UniProt P36955 1-418, looked up)
chain: MQALVLLLCIGALLGHSSCQNPASPPEEGSPDPDSTGALVEEEDPFFKVPVNKLAAAVSNFGYDLYRVRSSTSPTTNVLLSPLSVATALSALSLGAEQRTESIIHRALYYDLISSPDIHGTYKELLDTVTAPQKNLKSASRIVFEKKLRIKSSFVAPLEKSYGTRPRVLTGNPRLDLQEINNWVQAQMKGKLARSTKEIPDEISILLLGVAHFKGQWVTKFDSRKTSLEDFYLDEERTVRVPMMSDPKAVLRYGLDSDLSCKIAQLPLTGSMSIIFFLPLKVTQNLTLIEESLTSEFIHDIDRELKTVQAVLTVPKLKLSYEGEVTKSLQEMKLQSLFDSPDFSKITGKPIKLTQVEHRAGFEWNEDGAGTTPSPGLQPAHLTFPLDYHLNQPFIFVLRDTDTGALLFIGKILDPRGP
modifications: full-length
notes: 50 kDa neurotrophic factor, member of the serpin superfamily
[2]
  survival of RGCs from death: 55%

B2: BDNF: brain-derived neurotrophic factor (protein, UniProt P23560 19-247, looked up)
Neurotrophic factor BDNF …: APMKEANIRGQGGLAYPGVRTHGTLESVNGPKAGSRGLTSLADTFEHVIEELLDEDQKVRPNEENNKDADLYTSRVMLSSQVPLEPPLLFLLEEYKNYLDAANMSMRVRRHSDPARRGELSVCDSISEWVTAADKKTAVDMSGGTVTVLEKVPVSKGQLKQYFYETKCNPMGYTKEGCRGIDKRHWNSQCRTTQSYVRALTMDSKKRIGWRFIRIDTSCVCTLTIKRGR
RGC; 7 days
  RGC protected: 100%
RGC; by 21 days
  RGC protected: 60%

B3: CNTF: ciliary neurotrophic factor (Peprotech), positive control at 440.5 pM (protein, UniProt P26441 1-200, looked up)
Ciliary neurotrophic factor: MAFTEHSPLTPHRRDLCSRSIWLARKIRSDLTALTESYVKHQGLNKNINLDSADGMPVASTDQWSELTEAERLQENLQAYRTFHVLLARLLEDQQVHFTPTEGDFHQAIHTLLLQVAAFAYQIEELMILLEYKIPRNEADGMPINVGDGGLFEKKLWGLKVLQELSQWTVRSIHDLRFISSHQTGIPARGSHYIANNKKM
[3]
  fold increase in βIII-tubulin+ neuron survival compared to untreated cultures: 1.9 fold
RGC axons
  RGC axon regeneration after ONC: limited RGC axon regeneration
